Experimental data from patent US20230002480A1.

Tests used:
Test in all cases: cell-based or functional assay
[1] = molecular target: HIV-1 Env of pseudovirus T257-31 (HIV-1)
[2] = molecular target: HIV-1 Env of pseudovirus TRO.11 (HIV-1)
[3] = molecular target: HIV-1 Env of pseudovirus Q259.d2.17 (HIV-1)
[4] = molecular target: HIV-1 Env of pseudovirus HIV-0013095-2.11 (HIV-1)
[5] = molecular target: HIV-1 Env of pseudovirus MS208.A1 (HIV-1)
[6] = molecular target: HIV-1 Env of pseudovirus HIV-16845-2.22 (HIV-1)
[7] = molecular target: HIV-1 Env of pseudovirus QH0692.42 (HIV-1)
[8] = molecular target: HIV-1 Env of pseudovirus 62357_14_D3_4589 (HIV-1)
[9] = molecular target: HIV-1 Env of pseudovirus 191084 B7-19 (HIV-1)
[10] = molecular target: HIV-1 Env of pseudovirus Du422.1 (HIV-1)
[11] = molecular target: HIV-1 Env of pseudovirus Du156.12 (HIV-1)
[12] = molecular target: HIV-1 Env of pseudovirus REJO4541.67 (HIV-1)
[13] = molecular target: HIV-1 Env of pseudovirus Ce0682_E4 (HIV-1)
[14] = molecular target: HIV-1 Env of pseudovirus Q461.e2 (HIV-1)
[15] = molecular target: HIV-1 Env of pseudovirus PVO.4 (HIV-1)
[16] = molecular target: HIV-1 Env of pseudovirus CNE53 (HIV-1)
[17] = molecular target: HIV-1 Env of pseudovirus ZM214M.PL15 (HIV-1)
[18] = molecular target: HIV-1 Env of pseudovirus ZM249M.PL1 (HIV-1)
[19] = molecular target: HIV-1 Env of pseudovirus Ce2060_G9 (HIV-1)
[20] = molecular target: HIV-1 Env of pseudovirus Ce2010_F5 (HIV-1)
[21] = molecular target: HIV-1 Env of pseudovirus WEAU_d15_410_787 (HIV-1)

10E8 (antibody)
IC50, titer in TZM.bl cells [1]: 0.88 µg/mL | IC80, titer in TZM.bl cells [1]: 5.78 µg/mL | IC50, titer in TZM.bl cells [2]: 0.034 µg/mL | IC80, titer in TZM.bl cells [2]: 0.25 µg/mL | IC50, titer in TZM.bl cells [3]: 4.59 µg/mL | IC80, titer in TZM.bl cells [3]: > 10 µg/mL | IC50, titer in TZM.bl cells [4]: 0.031 µg/mL | IC80, titer in TZM.bl cells [4]: 0.213 µg/mL | IC50, titer in TZM.bl cells [5]: 0.609 µg/mL | IC80, titer in TZM.bl cells [5]: 3.72 µg/mL | IC50, titer in TZM.bl cells [6]: 0.068 µg/mL | IC80, titer in TZM.bl cells [6]: 0.495 µg/mL | IC50, titer in TZM.bl cells [7]: 0.442 µg/mL | IC80, titer in TZM.bl cells [7]: 4.05 µg/mL | IC50, titer in TZM.bl cells [8]: 0.119 µg/mL | IC80, titer in TZM.bl cells [8]: 1.06 µg/mL | IC50, titer in TZM.bl cells [9]: 5.16 µg/mL | IC80, titer in TZM.bl cells [9]: > 10 µg/mL | IC50, titer in TZM.bl cells [10]: 0.351 µg/mL | IC80, titer in TZM.bl cells [10]: 1.88 µg/mL | IC50, titer in TZM.bl cells [11]: 0.034 µg/mL | IC80, titer in TZM.bl cells [11]: 0.144 µg/mL | IC50, titer in TZM.bl cells [12]: 0.203 µg/mL | IC80, titer in TZM.bl cells [12]: 1.69 µg/mL | IC50, titer in TZM.bl cells [13]: 1.22 µg/mL | IC80, titer in TZM.bl cells [13]: 7.71 µg/mL | IC50, titer in TZM.bl cells [14]: 2.11 µg/mL | IC80, titer in TZM.bl cells [14]: > 10 µg/mL | IC50, titer in TZM.bl cells [15]: 0.747 µg/mL | IC80, titer in TZM.bl cells [15]: > 10 µg/mL | IC50, titer in TZM.bl cells [16]: 0.326 µg/mL | IC80, titer in TZM.bl cells [16]: 1.92 µg/mL | IC50, titer in TZM.bl cells [17]: 1.96 µg/mL | IC80, titer in TZM.bl cells [17]: > 10 µg/mL | IC50, titer in TZM.bl cells [18]: 1.51 µg/mL | IC80, titer in TZM.bl cells [18]: 6.29 µg/mL | IC50, titer in TZM.bl cells [19]: 3.52 µg/mL | IC80, titer in TZM.bl cells [19]: > 10 µg/mL | IC50, titer in TZM.bl cells [20]: 1.84 µg/mL | IC80, titer in TZM.bl cells [20]: 8.61 µg/mL | IC50, titer in TZM.bl cells [21]: > 10 µg/mL | IC80, titer in TZM.bl cells [21]: > 10 µg/mL

PG9 (antibody)
IC50, titer in TZM.bl cells [1]: 0.037 µg/mL | IC80, titer in TZM.bl cells [1]: 0.124 µg/mL | IC50, titer in TZM.bl cells [2]: 43.2 µg/mL | IC80, titer in TZM.bl cells [2]: > 50 µg/mL | IC50, titer in TZM.bl cells [3]: 0.029 µg/mL | IC80, titer in TZM.bl cells [3]: 1.38 µg/mL | IC50, titer in TZM.bl cells [4]: 0.01 µg/mL | IC80, titer in TZM.bl cells [4]: 0.03 µg/mL | IC50, titer in TZM.bl cells [5]: 0.005 µg/mL | IC80, titer in TZM.bl cells [5]: 0.014 µg/mL | IC50, titer in TZM.bl cells [6]: 4.4 µg/mL | IC80, titer in TZM.bl cells [6]: > 50 µg/mL | IC50, titer in TZM.bl cells [7]: > 50 µg/mL | IC80, titer in TZM.bl cells [7]: > 50 µg/mL | IC50, titer in TZM.bl cells [8]: > 50 µg/mL | IC80, titer in TZM.bl cells [8]: > 50 µg/mL | IC50, titer in TZM.bl cells [9]: 0.043 µg/mL | IC80, titer in TZM.bl cells [9]: 0.202 µg/mL | IC50, titer in TZM.bl cells [10]: 0.614 µg/mL | IC80, titer in TZM.bl cells [10]: 10.4 µg/mL | IC50, titer in TZM.bl cells [11]: 0.026 µg/mL | IC80, titer in TZM.bl cells [11]: 0.19 µg/mL | IC50, titer in TZM.bl cells [12]: 0.012 µg/mL | IC80, titer in TZM.bl cells [12]: 0.163 µg/mL | IC50, titer in TZM.bl cells [13]: 0.196 µg/mL | IC80, titer in TZM.bl cells [13]: 0.698 µg/mL | IC50, titer in TZM.bl cells [14]: 1.48 µg/mL | IC80, titer in TZM.bl cells [14]: 8.72 µg/mL | IC50, titer in TZM.bl cells [15]: 10.6 µg/mL | IC80, titer in TZM.bl cells [15]: > 50 µg/mL | IC50, titer in TZM.bl cells [16]: 0.131 µg/mL | IC80, titer in TZM.bl cells [16]: 0.6 µg/mL | IC50, titer in TZM.bl cells [17]: > 50 µg/mL | IC80, titer in TZM.bl cells [17]: > 50 µg/mL | IC50, titer in TZM.bl cells [18]: 0.166 µg/mL | IC80, titer in TZM.bl cells [18]: 1.41 µg/mL | IC50, titer in TZM.bl cells [19]: 0.045 µg/mL | IC80, titer in TZM.bl cells [19]: 0.172 µg/mL | IC50, titer in TZM.bl cells [20]: > 50 µg/mL | IC80, titer in TZM.bl cells [20]: > 50 µg/mL | IC50, titer in TZM.bl cells [21]: 4.08 µg/mL | IC80, titer in TZM.bl cells [21]: > 50 µg/mL

PG16 (antibody)
IC50, titer in TZM.bl cells [1]: 0.007 µg/mL | IC80, titer in TZM.bl cells [1]: 0.021 µg/mL | IC50, titer in TZM.bl cells [2]: 1.92 µg/mL | IC80, titer in TZM.bl cells [2]: 49.6 µg/mL | IC50, titer in TZM.bl cells [3]: 0.065 µg/mL | IC80, titer in TZM.bl cells [3]: 45.9 µg/mL | IC50, titer in TZM.bl cells [4]: 0.002 µg/mL | IC80, titer in TZM.bl cells [4]: 0.006 µg/mL | IC50, titer in TZM.bl cells [5]: 0.002 µg/mL | IC80, titer in TZM.bl cells [5]: 0.004 µg/mL | IC50, titer in TZM.bl cells [6]: 3.13 µg/mL | IC80, titer in TZM.bl cells [6]: > 50 µg/mL | IC50, titer in TZM.bl cells [7]: > 50 µg/mL | IC80, titer in TZM.bl cells [7]: > 50 µg/mL | IC50, titer in TZM.bl cells [8]: > 50 µg/mL | IC80, titer in TZM.bl cells [8]: > 50 µg/mL | IC50, titer in TZM.bl cells [9]: 0.024 µg/mL | IC80, titer in TZM.bl cells [9]: 0.238 µg/mL | IC50, titer in TZM.bl cells [10]: 0.261 µg/mL | IC80, titer in TZM.bl cells [10]: 33.8 µg/mL | IC50, titer in TZM.bl cells [11]: 0.006 µg/mL | IC80, titer in TZM.bl cells [11]: 0.026 µg/mL | IC50, titer in TZM.bl cells [12]: 0.039 µg/mL | IC80, titer in TZM.bl cells [12]: 13.4 µg/mL | IC50, titer in TZM.bl cells [13]: 0.026 µg/mL | IC80, titer in TZM.bl cells [13]: 0.202 µg/mL | IC50, titer in TZM.bl cells [14]: 1.75 µg/mL | IC80, titer in TZM.bl cells [14]: > 50 µg/mL | IC50, titer in TZM.bl cells [15]: 15.3 µg/mL | IC80, titer in TZM.bl cells [15]: > 50 µg/mL | IC50, titer in TZM.bl cells [16]: > 50 µg/mL | IC80, titer in TZM.bl cells [16]: > 50 µg/mL | IC50, titer in TZM.bl cells [17]: > 50 µg/mL | IC80, titer in TZM.bl cells [17]: > 50 µg/mL | IC50, titer in TZM.bl cells [18]: 0.127 µg/mL | IC80, titer in TZM.bl cells [18]: 18.1 µg/mL | IC50, titer in TZM.bl cells [19]: 0.075 µg/mL | IC80, titer in TZM.bl cells [19]: 1.71 µg/mL | IC50, titer in TZM.bl cells [20]: > 50 µg/mL | IC80, titer in TZM.bl cells [20]: > 50 µg/mL | IC50, titer in TZM.bl cells [21]: 0.435 µg/mL | IC80, titer in TZM.bl cells [21]: > 50 µg/mL
